Results on one molecule are retold here after patent US20130108549A1 (ADLYFE, published 2013).

The assay concerns the target T1, Aβ42 oligomers (Homo sapiens (Human), UniProt P05067 672-713).
T1 construct: also called oligomers of Aβ42 (including dimers, trimers, tetramers, hexamers and 12-mers); oligomeric forms of Aβ42
Put plainly: pyrene excimer fluorescence, excitation 350 nm, scan 360-600 nm.

pyrene = pyrene fluorescent label

T1 sequence (P05067 672-713 limits assumed): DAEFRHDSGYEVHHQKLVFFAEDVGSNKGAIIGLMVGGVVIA

B1: Peptide probe specific for Aβ (SEQ ID NO:36) labeled at each terminus with pyrene (peptide)
peptide: pyrene-KLVFFAEDVGSNKGAIIGLM-pyrene
notes: also called Aβ peptide probe; dipyrene labeled peptide probe
Consider B1, for which the binding result is reported as “binds”.
